The text below walks through data of patent US20220372154A1 (APEXIGEN, published 2022).

Assay [1] deals with T1, human TNFR2-His tagged protein (soluble) (human, UniProt P20333 23-257).
T1 construct: also called hTNFR2 (soluble); soluble TNFR2-His; not shown: His tag
T1 sequence (looked up): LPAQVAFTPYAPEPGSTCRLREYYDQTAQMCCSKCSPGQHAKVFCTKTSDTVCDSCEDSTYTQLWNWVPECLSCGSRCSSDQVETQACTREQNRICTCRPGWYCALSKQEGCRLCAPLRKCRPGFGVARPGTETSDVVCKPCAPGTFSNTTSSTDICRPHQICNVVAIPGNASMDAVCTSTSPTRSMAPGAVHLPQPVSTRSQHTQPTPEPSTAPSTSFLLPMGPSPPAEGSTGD
Briefly: ELISA on coated human TNFR2-His. How it is done: (§1) In FIGS. 3A-3B, human (3A) or cynomolgus (3B) TNFR2-His tagged protein was coated on 96-well ELISA plates at 1 μg/mL and incubated overnight at 4° C. Plates were washed and blocked using 1% BSA. Antibodies were added for 1 hour at room temperature (RT), washed, and detected using anti-Human HRP. Assay was developed using TMB substrate for 3-5 minutes. In FIG. 3C, FACS binding was performed on CHO cells that were engineered to express human TNFR2. Briefly, antibodies were incubated with 200,000 cells in MACS buffer for 1 hour followed by wash and detection using anti-human IgG BV421 for 20 minutes. Samples were analyzed using Cytoflex or MACSQuant flow cytometers. In FIG. 3D, ligand blocking ELISA was performed by coating plates with 1 ug/mL TNFR-Fc overnight at 4° C. Plates were washed, blocked and antibodies were incubated for 1 hr at RT. […] Assay was developed using TMB substrate for 5-7 minutes.
(In an ELISA, binding on a coated surface is turned into a signal by an enzyme label.)

The target of assay [2] is T2, cynomolgus TNFR2-His tagged protein (cynomolgus, UniProt A0A2K5VET2 132-366).
T2 construct: also called Cyno TNFR2; cynomolgus TNFR2 protein; not shown: His tag
T2 sequence: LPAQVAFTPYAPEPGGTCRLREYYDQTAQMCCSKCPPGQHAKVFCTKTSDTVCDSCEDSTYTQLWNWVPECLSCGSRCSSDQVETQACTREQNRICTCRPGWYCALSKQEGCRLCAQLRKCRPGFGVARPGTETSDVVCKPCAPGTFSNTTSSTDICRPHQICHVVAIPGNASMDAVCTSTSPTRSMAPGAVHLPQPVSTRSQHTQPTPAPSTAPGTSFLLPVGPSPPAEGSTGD
Briefly: ELISA on coated cynomolgus TNFR2-His. How it is done:
as §1

Assay [3] addresses T3, TNFR2 CRD4 peptide (peptide 5; aa 146-174 of mature TNFR2) (human).
T3 construct: Range counted on mature TNFR2; also called peptide five; bin 5
T3 peptide: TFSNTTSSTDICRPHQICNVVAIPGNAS
Briefly: peptide-binding ELISA (potential peptide bin).

A further assay addresses T4, soluble mouse TNFR2 (mouse, UniProt P25119 23-258, limits assumed).
T4 sequence (looked up): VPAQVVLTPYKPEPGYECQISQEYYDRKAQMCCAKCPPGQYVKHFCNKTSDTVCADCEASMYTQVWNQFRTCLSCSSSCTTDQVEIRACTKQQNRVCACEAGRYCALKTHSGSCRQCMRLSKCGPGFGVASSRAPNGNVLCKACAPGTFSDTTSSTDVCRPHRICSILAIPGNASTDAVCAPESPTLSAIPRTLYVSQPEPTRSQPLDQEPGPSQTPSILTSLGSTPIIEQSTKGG
Kind of assay: binding screen on soluble mouse TNFR2 (mouse cross-reactivity).

The target of assay [4] is T2, cynomolgus TNFR2-His tagged protein. Kind of assay: ELISA, cynomolgus TNFR2.
The target in assay [5] is T1, human TNFR2-His tagged protein (soluble). Briefly: ELISA, soluble human TNFR2.
For another assay, the target named is T5, TNFR-Fc (UniProt P20333 23-257, limits assumed).
T5 construct: Printed only as TNFR-Fc; not shown: Fc part
T5 sequence (looked up): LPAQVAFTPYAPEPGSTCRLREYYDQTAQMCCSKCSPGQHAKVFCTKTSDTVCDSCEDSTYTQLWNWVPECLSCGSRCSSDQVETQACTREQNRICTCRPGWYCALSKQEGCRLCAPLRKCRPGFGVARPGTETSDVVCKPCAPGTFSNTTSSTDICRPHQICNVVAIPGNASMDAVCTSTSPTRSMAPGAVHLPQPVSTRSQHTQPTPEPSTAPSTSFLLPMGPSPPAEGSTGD
Kind of assay: TNF-α blocking ELISA (soluble).

Assay [6] deals with T6, human TNFR2 expressed on cells (human, UniProt P20333 23-461).
T6 construct: whole, on cells; also called hTNFR2 (cell); CHO-TNFR2
T6 sequence (looked up): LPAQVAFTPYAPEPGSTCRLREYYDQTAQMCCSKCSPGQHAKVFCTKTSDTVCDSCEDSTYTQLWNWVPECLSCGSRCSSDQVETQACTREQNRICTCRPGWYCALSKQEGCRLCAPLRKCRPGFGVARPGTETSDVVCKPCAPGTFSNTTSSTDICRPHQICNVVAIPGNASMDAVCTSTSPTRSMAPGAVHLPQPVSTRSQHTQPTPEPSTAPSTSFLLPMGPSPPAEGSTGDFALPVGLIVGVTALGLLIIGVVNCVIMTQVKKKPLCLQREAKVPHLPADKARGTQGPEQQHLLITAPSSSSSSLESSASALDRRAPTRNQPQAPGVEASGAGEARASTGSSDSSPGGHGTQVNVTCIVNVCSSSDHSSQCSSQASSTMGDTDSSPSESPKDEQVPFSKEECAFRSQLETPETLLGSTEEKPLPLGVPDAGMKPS
Briefly: flow cytometry, cell-expressed human TNFR2. On the technique in general: In flow cytometry, cells or beads pass a laser one at a time.

The target in assay [7] is T6, human TNFR2 expressed on cells. Briefly: flow cytometry on CHO cells expressing human TNFR2. How it is done:
as §1

Assay [8] shares this target. Briefly: cell binding on TNFR2-overexpressing (OE) cells.

B1: chimeric antibody clone 24-97 (rab600_24_97) (antibody, V domains shown)
VH: QSLEESGGDLVKPGASLTLTCKASGFSFSSGHDMCWVRQAPGKGLEWIACIYPDYDITDYASWVNGRFTISLDNAQNTVFLQMTSLTAADTATYFCARSGYGGFRYGFNLWGPGTLVTVSS
VL: DIVMTQTPASVEVAVGGTVTIKCQASEDIENYLAWYQQKPGQPPKLLIYDASDLTSGVPSRFKGSGSGTQFTLTISDLECADAATYYCQSVYYTSSDNYNNAFGGGTEVVVK
In general, EC50 refers to the concentration giving half of the maximal effect. A lower EC50 goes with a more potent agent. Take B1: the figures for the EC50 in assay [1] and in [2] were 63.2 pM and 86 pM, respectively. Besides, the binding result (in assay [3]; in the assay with soluble mouse TNFR2) was “binds” in each case.

B2: chimeric antibody clone 24-2 (rab600_24_2) (antibody, V domains shown)
VH: QEQLEESGGGLVQPEGSLALTCKASGFSFSVSYWICWVRQAPGKGLEWIACTDGGDGSSYYASWVNGRFTISKISSTTVTLQMTSLTAADTAIYFCARDRSDVFNLWGPGTLVTVSS
VL: DIVMTQTPASVEAAVGGTVTIKCQAGQSIDSNLAWYQQKPGQPPKLLIYRASTLASGVPSRFKGSGSGTEFALTISDLECADAATYFCQSFYVTISAMVDYPFGGGTEVVVK
Consider B2, for which the EC50 is 98.1 pM in assay [1] and 74.2 pM in assay [2]. The binding result in assay [3] is listed as “binds”; in the assay with soluble mouse TNFR2 it was “no binding”.

B3: humanized antibody clone 4 (taken as h600_23_4) (antibody, V domains shown)
VH: EVQLVESGGGLVQPGGSLRLSCAASGIDLSSYTMGWVRQAPGKGLEWVGFISSSGHTYYANWAKGRFTISRDNSKNTLYLQMNSLRAEDTAVYYCAREGGYGGYDYTGIFNLWGQGTLVTVSS
VL: DIQMTQSPSTLSASVGDRVTITCQATESISSWLAWYQQKPGKAPKLLIYGASTLESGVPSRFSGSGSGTEFTLTISSLQPDDFATYYCQQGYIYTNVDNTFGGGTKVEIK
One may read the IC50 as the concentration needed to halve the response being measured. As to B3, the EC50 in assay [4] was found to be 340 pM; in assay [5], 111 pM; in [6], 1130 pM. In the assay with TNFR-Fc, this molecule gave an IC50 of 3570 pM.

B4: chimeric antibody clone 25-10 (rab600_25_10) (antibody, V domains shown)
VH: QSVEESGGRLVAPGTPLTLTCTVSGIDLSRYAMAWVRQAPGKGLEYIGYIDTGDSTYYATWAKGRFTISRTSTTVHLKIASPTTEDTATYFCTNVGVRMYLWGPGTLVTVSS
VL: DVVMTQTPASVEAAVGGTVTIKCQASQSISSYLSWYQQKPGQPPKLLIYRASTLESGVPSRFKGSGSGTEFTLTISDLECADAATYYCQCGYYGGSYIGAFGGGTEVVVK
B4: the EC50 was 86.2 pM in assay [1], 23.5 pM in assay [2] and 513 pM in assay [7]. The binding result (in assay [3]; with soluble mouse TNFR2) was “binds” in each case.

B5: humanized antibody h600_23_24_H (antibody, V domains shown)
VH: EVQLVESGGGLVQPGGSLRLSCAASGFSLNSYGVNWVRQAPGKGLEWVGGINTGGSTYYANWAKGRFTISRDNSKNTLYLQMNSLRAEDTAVYYCARTSGNNVYNYFTLWGQGTLVTVSS
VL: DIQMTQSPSSLSASVGDRVTITCQASQSIPSLLAWYQQKPGKAPKLLIYAPSTLASGVPSRFSGSGSGTDFTLTISSLQPEDFATYYCQSYYYGDNTYNNIFGGGTKVEIK
What is called Kd is the free concentration of one partner at which half of the binding sites on the other are occupied at equilibrium, for simple one-to-one binding. Read a low Kd as higher affinity. For B5, the EC50 in [4] was determined as 91 pM; in assay [5], 142 pM; in assay [6], 1990 pM. The molecule also had a Kd in assay [8] of 1500 pM.

B6: humanized antibody clone 25-10 (h600_24_10) (antibody, V domains shown)
VH: EVQLLESGGGLVQPGGSLRLSCAASGIDLSRYAMAWVRQAPGKGLEWVGYIDTGDSTYYATWAKGRFTISRDNSKNTLYLQMNSLRAEDTAVYYCTNVGVRMYLWGQGTLVTVSS
VL: DIQMTQSPSSLSASVGDRVTITCQASQSISSYLSWYQQKPGKAPKLLIYRASTLESGVPSRFSGSGSGTDFTLTISSLQPEDFATYYCQCGYYGGSYIGAFGGGTKVEIK
notes: its CDRs are those of rab600_25_10
With B6, the EC50 in assay [4] is 113 pM; in assay [5], 53 pM; in assay [6], 1380 pM. This molecule yielded a Kd in assay [8] of 1050 pM.

B7: humanized antibody clone 25-103 (h600_24_103) (antibody, V domains shown)
VH: EVQLVESGGGLVQPGGSLRLSCAASGIDLSSYAMGWVRQAPGKGLEWVGFIDTGGSTYYANWAKGRFTISRDNSKNTLYLQMNSLRAEDTAVYYCANVGARMYLWGQGTLVTVSS
VL: DIQMTQSPSSLSASVGDRVTITCQASQSISNLLAWYQQKPGKAPKLLIYRASTLESGVPSRFSGSGSGTDFTLTISSLQPEDFATYYCQCSYYGGSYIGAFGGGTKVEIK
notes: its CDRs are those of rab600_25_103
Turning to B7, the EC50 is 107 pM in assay [4], 97 pM in assay [5] and 570 pM in assay [6]. In assay [8], the Kd turned out to be 468 pM.

B8: chimeric antibody clone 24-62 (rab600_24_62) (antibody, V domains shown)
VH: QSLEESGGDLVVPGTSLTLTCTASGFDLSSFYYMCWVRQAPGKGLEWIACIYAVSSGSTYYASWAKGRFTVSRTSSTTATLQMTSLTAADTATYFCARHQSYETYGYVGVVYATYFSLWGPGTLVTVSS
VL: ALVMTQTPASVSAAVGGTVTINCQASEDIDSYLAWYQQKPGQPPKLLIYYASYLTSGVPSRFKGSGSGTEYTLTISGVQCDDAATYYCQSAFYSNNTETAFGGGTEVVVK
Turning to B8, the EC50 in assay [1] was found to be 137 pM; in assay [2], 95.8 pM. The binding result (in [3]; with soluble mouse TNFR2) was “binds” throughout.

B9: chimeric antibody clone 24-25 (rab600_24_25) (antibody, V domains shown)
VH: QSLEESGGGLVKPEGSLTLTCAVSGFDLNSYYWICWARQAPGKGLEWIACIDGGSTGSAYYASWAKGRLSISKASSTTVTLQMTSLTAADTATYFCARVQSYVGYANYGYPNYFNLWGPGTLVTVSS
VL: IEMTQTPSSVSAAVGGTVTINCQSSEDIDSYLAWYQQKPGQPPKLLIYHASYLTSGVPSRFSGSRSGTEFTLTISDLECDDAATYYCQSAYYSSSADNTFGGGTEVVVK
B9: the EC50 in assay [1] amounted to 210 pM; in assay [2], 189 pM. In addition, the binding result (in [3]; in the assay with soluble mouse TNFR2) was “binds” in each case.

B10: humanized antibody clone 37 (taken as h600_25_37) (antibody, V domains shown)
VH: EVQLVESGGGLVQPGGSLRLSCAASGIDLSNYAMGWVRQAPGKGLEWVGSRRTDGITYYANWAEGRFTISRDNSKNTLYLQMNSLRAEDTAVYYCGRDVGGEGGWYFNLWGQGTLVTVSS
VL: DIQMTQSPSTLSASVGDRVTITCQASQSINIYLAWYQQKPGKAPKLLIYDASKLASGVPSRFSGSGSGTEFTLTISSLQPDDFATYYCQQGINNIGFGGGTKVEIK
With B10, the EC50 came out at 56 pM in assay [4], 72 pM in assay [5] and 109000 pM in assay [6].
